Molecular target: gelatin layer (gelatin coated glass coverslips)
Experiment: not stated; unpublished data (Collier and Goldberg); affinity for gelatin

fold higher affinity of the dimer for gelatin: 10 fold
Substance: MMP-9 pro-enzyme homo-dimer (complex)

From PMC3164694
